Patent US4885277A, “Anticoagulant therapy” (Oklahoma Medical Research Foundation, priority 1987, dated 1989)

Tested on: endothelial cellular receptors for Factor IX (cultured bovine aortic endothelial cells)
Test: Competitive binding of [125I]-Factor IX to cultured bovine aortic endothelial cells
Settings: cultured bovine aortic endothelial cells, 4-5 hours at 4° C.; mean, SEM less than 20%; read-out: Inhibitory Constant, inhibition of binding of [125I]-Factor IX
Method: The purified peptides were tested for their ability to block the binding of bovine Factor IX and IXa to cultured bovine aortic endothelial cells. Bovine Factor IX and IXa for these studies were prepared and radioiodinated (using Na^125 I and the solid state lactoperoxidase technique) using methods described by Stern, et al. (J. Biol. Chem. 260, pp. 6717-6722 [1985]). Bovine aortic endothelial cells were obtained from the aortae of newborn calves as described by Stern, et al. (Proc. Natl. Acad. Sci. U.S.A., 80, pp. 4119-4123 [1983]). These endothelial cells were grown to confluence (1.3×10^5 cells/cm^2) in culture dishes. Binding assays were carried out by incubating either ^125 I-Factor IX or ^125 I-Factor IXa with endothelial cell monolayers in the presence of varying concentrations of one of the peptides. The buffer used in these experiments was Minimal Essential Medium containing 0.5 mg/ml transferring, and the incubation time was 4-5 hours at 4° C. At the end of the incubation period, the cultures were washed to remove unbound material. Then, specifically bound [^125 I]-Factor IX or [^125 I]-Factor IXa was eluted during exposure to EDTA-containing buffer as described by Stern, et al. (Proc. Natl. Acad. Sci. U.S.A., 80, pp. 4119-4123 [1983].

B1: Factor IX: bovine Factor IX, Vitamin K-dependent plasma glycoprotein, used as competitor (protein, UniProt P00741 26-462, looked up)
Coagulation factor IX: AECTVFLDRENATKILHRPKRYNSGKLEEFVRGNLERECKEEKCSFEEAREVFENTEKTTEFWKQYVDGDQCESNPCLNGGMCKDDINSYECWCQAGFEGTNCELDATCSIKNGRCKQFCKRDTDNKVVCSCTDGYRLAEDQKSCEPAVPFPCGRVSVSHISKKLTRAETIFSNTNYENSSEAEIIWDNVTQSNQSFDEFSRVVGGEDAERGQFPWQVLLHGEIAAFCGGSIVNEKWVVTAAHCIKPGVKITVVAGEHNTEKPEPTEQKRNVIRAIPYHSYNASINKYSHDIALLELDEPLELNSYVTPICIADRDYTNIFLKFGYGYVSGWGKVFNRGRSASILQYLKVPLVDRATCLRSTKFSIYSHMFCAGYHEGGKDSCQGDSGGPHVTEVEGTSFLTGIISWGEECAMKGKYGIYTKVSRYVNWIKEKTKLT
Which Ki does the source give for B1 here?
The Ki was 3 nM.
